Patent US20190184028A1 (Janssen / Centocor, published 2019)
Numbering of substitutions follows the chain as printed.

T1: human EpCAM (human, UniProt P16422 24-314)
T1 sequence (looked up): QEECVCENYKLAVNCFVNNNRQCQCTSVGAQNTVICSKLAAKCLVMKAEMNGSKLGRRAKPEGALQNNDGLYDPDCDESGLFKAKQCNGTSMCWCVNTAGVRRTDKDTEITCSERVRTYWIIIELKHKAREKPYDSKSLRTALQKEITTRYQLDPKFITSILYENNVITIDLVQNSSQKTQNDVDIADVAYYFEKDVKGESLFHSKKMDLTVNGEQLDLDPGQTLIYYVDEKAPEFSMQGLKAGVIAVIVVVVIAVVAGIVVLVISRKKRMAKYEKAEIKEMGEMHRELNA

B1: EEB9 PEG4-MMAF conjugate (designed binder)
chain: MLPAPKNLVVSRVTEDSARLSWTAPDAAFDSFQIYYSELLSYGEAIVLTVPGSERSYDLTGLCPGTEYTVSINGVKGGTRSWSLSAIFTTAPAPAPAPAPLPAPKNLVVSRVTEDSARLSWTAPDAAFDSFQIYYSELLSYGEAIVLTVPGSERSYDLTGLCPGTEYTVSINGVKGGTRSWSLSAIFTTAPAPAPAPAPTIDEWLLKEAKEKAIEELKKAGITSDYYFDLINKAKTVEGVNALKDEILKA
modifications: Iodoacetyl-PEG4-MMAF on cysteines; 2 MMAF after conjugation
notes: Bivalent P155R8-G3 with ABDcon12
B2: EEB11 PEG4-MMAF conjugate (designed binder)
chain: B1 chain with A93C
modifications: Iodoacetyl-PEG4-MMAF on cysteines; 3 MMAF after conjugation
notes: as for B1
B3: EEB10 PEG4-MMAF conjugate (designed binder)
chain: B1 chain with A93C, A192C
modifications: Iodoacetyl-PEG4-MMAF on cysteines; 4 MMAF after conjugation
notes: as for B1
B4: EEB8 PEG4-MMAF conjugate (designed binder)
chain: B1 chain with C162K
modifications: Iodoacetyl-PEG4-MMAF on cysteine; 1 MMAF after conjugation
B5: ISOP130R5CP6_A06_L81A vcMMAF conjugate (designed binder)
chain: MLPAPKNLVVSRVTEDSARLSWKHYRPGARFDSFLIQYQESEKVGEAIVLTVPGSERSYDLTGLKPGTEYTVSIYGVVTAAPSYYSSNPLSAIFTTGGHHHHHHGGLPETGGH
modifications: vcMMAF conjugated via the sortase reaction at the C-terminal sortase tag
B6: ISOP130R5CP6_A06_Y25A vcMMAF conjugate (designed binder)
chain: B5 chain with Y25A, A81L
modifications: vcMMAF conjugated via the sortase reaction at the C-terminal sortase tag
B7: ISOP130R5CP6_A06_P82A vcMMAF conjugate (designed binder)
chain: B5 chain with A81L, P82A
modifications: vcMMAF conjugated via the sortase reaction at the C-terminal sortase tag
B8: ISOP130R5CP6_A06_S86A vcMMAF conjugate (designed binder)
chain: B5 chain with A81L, S86A
modifications: vcMMAF conjugated via the sortase reaction at the C-terminal sortase tag
B9: ISOP130R5CP6_A06_P27A vcMMAF conjugate (designed binder)
chain: B5 chain with P27A, A81L
modifications: vcMMAF conjugated via the sortase reaction at the C-terminal sortase tag
B10: ISOP130R5CP6_A06_G28A vcMMAF conjugate (designed binder)
chain: B5 chain with G28A, A81L
modifications: vcMMAF conjugated via the sortase reaction at the C-terminal sortase tag
B11: ISOP130R5CP6_A06_R26A vcMMAF conjugate (designed binder)
chain: B5 chain with R26A, A81L
modifications: vcMMAF conjugated via the sortase reaction at the C-terminal sortase tag
B12: ISOP130R5CP6_A06_K23A vcMMAF conjugate (designed binder)
chain: B5 chain with K23A, A81L
modifications: vcMMAF conjugated via the sortase reaction at the C-terminal sortase tag
B13: ISOP130R5CP6_A06_R30A vcMMAF conjugate (designed binder)
chain: B5 chain with R30A, A81L
modifications: vcMMAF conjugated via the sortase reaction at the C-terminal sortase tag
B14: ISOP130R5CP6_A06_Y85A vcMMAF conjugate (designed binder)
chain: B5 chain with A81L, Y85A
modifications: vcMMAF conjugated via the sortase reaction at the C-terminal sortase tag
B15: ISOP130R5CP6_A06_Y84A vcMMAF conjugate (designed binder)
chain: B5 chain with A81L, Y84A
modifications: vcMMAF conjugated via the sortase reaction at the C-terminal sortase tag
B16: ISOP130R5CP6_A06_H24A vcMMAF conjugate (designed binder)
chain: B5 chain with H24A, A81L
modifications: vcMMAF conjugated via the sortase reaction at the C-terminal sortase tag
B17: ISOP130R5CP6_A06_V78A vcMMAF conjugate (designed binder)
chain: B5 chain with V78A, A81L
modifications: vcMMAF conjugated via the sortase reaction at the C-terminal sortase tag
B18: ISOP130R5CP6_A06_S83A vcMMAF conjugate (designed binder)
chain: B5 chain with A81L, S83A
modifications: vcMMAF conjugated via the sortase reaction at the C-terminal sortase tag
B19: ISOP130R5CP6_A06_T79A vcMMAF conjugate (designed binder)
chain: B5 chain with T79A, A81L
modifications: vcMMAF conjugated via the sortase reaction at the C-terminal sortase tag
B20: ISOP130R5CP6_A06srt vcMMAF conjugate (designed binder)
chain: B5 chain with A81L
modifications: vcMMAF conjugated via the sortase reaction at the C-terminal sortase tag (Gly3-vcMMAF)
B21: ISOP130R5CP6_F01srt vcMMAF conjugate (designed binder)
chain: B5 chain with A81L, Y84N, S86I
modifications: vcMMAF conjugated via the sortase reaction at the C-terminal sortase tag (Gly3-vcMMAF)
B22: ISOP130R5CP6_E08srt vcMMAF conjugate (designed binder)
chain: B5 chain with T79A, A81L, S83N, Y84N, S86A
modifications: vcMMAF conjugated via the sortase reaction at the C-terminal sortase tag (Gly3-vcMMAF)
B23: ISOP130R5CP7_G02srt vcMMAF conjugate (designed binder)
chain: MLPAPKNLVVSRVTEDSARLSWKHYRPGARFDSFLIQYQESEKVGEAIILTVPGSERSYDLTGLKPGTEYTVSIYGVVTHALPTAYTSNPLSAIFTTGGHHHHHHGGLPETGGH
modifications: vcMMAF conjugated via the sortase reaction at the C-terminal sortase tag (Gly3-vcMMAF)
B24: ISOP130R5CP6_F02srt vcMMAF conjugate (designed binder)
chain: B23 chain with K23D, H24Q, P27K, G28Y, R30G, I49V, T84Q, A85T, T87Q
modifications: vcMMAF conjugated via the sortase reaction at the C-terminal sortase tag (Gly3-vcMMAF)
B25: ISOP130R5CP6_A02srt vcMMAF conjugate (designed binder)
chain: B23 chain with I49V, T79N, H80N, T84R, A85W, T87I
modifications: vcMMAF conjugated via the sortase reaction at the C-terminal sortase tag (Gly3-vcMMAF)
B26: ISOP130R5CP7_F11srt vcMMAF conjugate (designed binder)
chain: B23 chain with I49V, V78I, T79W, H80G, T84N, A85S, T87S
modifications: vcMMAF conjugated via the sortase reaction at the C-terminal sortase tag (Gly3-vcMMAF)
B27: ISOP130R5CP6_A06_cys vcMMAF conjugate (designed binder)
chain: MLPAPKNLVVSRVTEDSARLSWKHYRPGARFDSFLIQYQESEKVGEAIVLTVPGSERSYDLTGLKPGTEYTVSIYGVVTALPSYYSSNPLSAIFTTGGHHHHHHGGC
modifications: vc-MMAF on the C-terminal cysteine (cysteine-maleimide chemistry)
B28: ISOP130R5CP7_G04_cys vcMMAF conjugate (designed binder)
chain: B27 chain with V78A, T79A, A80H, L81A, P82I, S83P, Y84R, S86A
modifications: vc-MMAF on the C-terminal cysteine (cysteine-maleimide chemistry)
B29: Iso124R5AB_D6_cys vcMMAF conjugate (designed binder)
chain: MLPAPKNLVVSRVTEDSARLSWHNHRPQFDSFLIQYQESEKVGEAIVLTVPGSERSYDLTGLKPGTEYTVSIYGVAIAVPWNYQSNPLSAIFTTGGHHHHHHGGC
modifications: vc-MMAF on the C-terminal cysteine (cysteine-maleimide chemistry)
B30: P229CR5P819_H11 vcMMAF conjugate (designed binder)
chain: LPAPKNLVVSRVTEDSARLSWDIDEQRDWFDSFLIQYQESEKVGEAIVLTVPGSERSYDLTGLKPGTEYTVSIYGVYHVYRSSNPLSAIFTT
modifications: vc-MMAF conjugated through a sortase tag (Gly3-vc-MMAF, sortase A)
B31: P233FR9P1001-H3-1 vcMMAF conjugate (designed binder)
chain: LPAPKNLVVSRVTEDSARLSWTAPDAAFDSFPIGYWEWDDDGEAIVLTVPGSERSYDLTGLKPGTEYHVYIAGVKGGQWSFPLSAIFTT
modifications: vc-MMAF conjugated through a sortase tag (Gly3-vc-MMAF, sortase A)
B32: P233FR9_H10 vcMMAF conjugate (designed binder)
chain: B31 chain with P32A, H68P
modifications: vc-MMAF conjugated through a sortase tag (Gly3-vc-MMAF, sortase A)
B33: P234CR9_H01 vcMMAF conjugate (designed binder)
chain: LPAPKNLVVSRVTEDSARLSWEWWVIPGDFDSFLIQYQESEKVGEAIVLTVPGSERSYDLTGLKPGTEYTVSIYGVVNSGQWNDTSNPLSAIFTT
modifications: vc-MMAF conjugated through a sortase tag (Gly3-vc-MMAF, sortase A)

Each binder was assayed against T2, epidermal growth factor receptor (EGFR) (human, UniProt P00533 25-1210) (assay: table column 'Binding antigen'; no assay given).
T2 construct: whole, on cells; The cell assays use human tumour lines; also called hEGFR

B1: binds.
B2: binds.
B3: binds.
B4: binds.

Each binder was assayed against T1, human EpCAM (assay: cell-based or functional assay).

First: B5
Second: B6
The “IC50 (nM), cytotoxicity on COLO205 cells (CellTiterGlo)” value (“IC50 … on COLO205 cells (CellTiterGlo)” below) of the first is 1.7-fold lower: 76 nM for the first, 127 nM for the second.

Going from B7 to B8, the “IC50 … on COLO205 cells (CellTiterGlo)” value falls from 326 nM to 1.3 nM (250-fold).

Going from B9 to B10, the “IC50 … on COLO205 cells (CellTiterGlo)” value falls from 42.6 nM to 0.8 nM (53-fold).

Compared with B11, B12 is 510-fold lower in “IC50 … on COLO205 cells (CellTiterGlo)” value: 507 nM for the first, 1 nM for the second.

Going from B13 to B14, the “IC50 … on COLO205 cells (CellTiterGlo)” value rises from 0.8 nM to 564 nM (700-fold).

Going from B15 to B16, the “IC50 … on COLO205 cells (CellTiterGlo)” value rises from 0.4 nM to 2.6 nM (6.5-fold).

First: B17
Second: B18
The “IC50 … on COLO205 cells (CellTiterGlo)” value of the first is 3.2-fold higher: 4.5 nM for the first, 1.4 nM for the second.

Compared with B19, B20 is 3.2-fold higher in “IC50 … on COLO205 cells (CellTiterGlo)” value: 0.5 nM for the first, 1.6 nM for the second.

Target: T1, human EpCAM
Assay: cell-based or functional assay
Remark: another data set of the same source

Compared with B21, B22 is higher in “% viable COLO205 cells, 1 nM” value: 43% for the first, 66% for the second.

Going from B20 to B23, the “% viable COLO205 cells, 1 nM” value falls from 67% to 39%.

Going from B24 to B25, the “% viable COLO205 cells, 1 nM” value falls from 90% to 66%.

With B26 the “% viable COLO205 cells, 1 nM” value was 81%.

Target: T1, human EpCAM
Assay: cell-based or functional assay
Remark: another data set of the same source

Going from B27 to B28, the “Cytotoxicity Assays of CDCs, A431 cells IC50 (nm)” value rises from 9.9 nm to 48.1 nm.

With B29 the “Cytotoxicity Assays of CDCs, A431 cells IC50 (nm)” value was 59.2 nm.

Compared with B27, B28 is higher in “Cytotoxicity Assays of CDCs, HT-29 cells IC50 (nm)” value: 6.7 nm for the first, 37.7 nm for the second.

In the case of B29, the “Cytotoxicity Assays of CDCs, HT-29 cells IC50 (nm)” value is reported as 38.3 nm.

Each binder was assayed against prostate specific membrane antigen (PSMA) (UniProt Q04609 1-750, limits assumed) (assay: cell-based or functional assay).
Chain of prostate specific membrane antigen (PSMA) (Q04609 whole entry): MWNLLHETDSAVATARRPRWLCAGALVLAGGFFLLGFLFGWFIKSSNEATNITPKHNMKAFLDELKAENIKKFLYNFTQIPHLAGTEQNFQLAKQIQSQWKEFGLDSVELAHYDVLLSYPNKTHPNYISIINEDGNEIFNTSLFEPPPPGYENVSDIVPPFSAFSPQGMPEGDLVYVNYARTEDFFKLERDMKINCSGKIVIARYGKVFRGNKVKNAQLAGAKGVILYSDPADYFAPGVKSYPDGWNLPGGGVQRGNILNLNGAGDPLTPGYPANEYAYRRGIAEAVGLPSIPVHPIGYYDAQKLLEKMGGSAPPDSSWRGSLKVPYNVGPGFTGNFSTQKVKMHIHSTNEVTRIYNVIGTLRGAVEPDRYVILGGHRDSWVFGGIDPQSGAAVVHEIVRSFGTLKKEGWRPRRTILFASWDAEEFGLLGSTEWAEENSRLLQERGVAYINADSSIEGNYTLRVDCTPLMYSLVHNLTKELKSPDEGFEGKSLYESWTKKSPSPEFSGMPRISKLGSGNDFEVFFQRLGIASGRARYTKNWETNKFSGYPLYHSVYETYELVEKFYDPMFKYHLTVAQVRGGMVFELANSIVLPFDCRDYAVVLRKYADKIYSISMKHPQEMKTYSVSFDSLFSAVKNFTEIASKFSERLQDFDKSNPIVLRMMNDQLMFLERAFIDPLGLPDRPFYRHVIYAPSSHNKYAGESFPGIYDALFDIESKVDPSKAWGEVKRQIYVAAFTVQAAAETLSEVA

First: B30
Second: B31
The “LNCaP cells IC50 (nM), cytotoxicity (CellTiterGlo)” value of the first is 23-fold higher: 9.3 nM for the first, 0.4 nM for the second.

First: B32
Second: B33
The “LNCaP cells IC50 (nM), cytotoxicity (CellTiterGlo)” value of the first is 45-fold lower: 0.5 nM for the first, 22.6 nM for the second.

First: B30
Second: B31
The “MDA-PCA-2B cells IC50 (nM), cytotoxicity (CellTiterGlo)” value of the first is 23-fold higher: 107 nM for the first, 4.6 nM for the second.

Going from B32 to B33, the “MDA-PCA-2B cells IC50 (nM), cytotoxicity (CellTiterGlo)” value rises from 5.8 nM to 151 nM (26-fold).

Compared with B30, B31 is 15-fold lower in “VCAP cells IC50 (nM), cytotoxicity (CellTiterGlo)” value: 231 nM for the first, 15.2 nM for the second.

Compared with B32, B33 is 15-fold higher in “VCAP cells IC50 (nM), cytotoxicity (CellTiterGlo)” value: 25.9 nM for the first, 401 nM for the second.
